The assay concerns the target recombinant soluble homotrimeric HA of A/common magpie/Hong Kong/5052/07 (H5N1) (Influenza A virus A/common magpie/Hong Kong/5052/2007 (H5N1)). Description: HA microarray, control mAb. The note with it: remark: other sources report otherwise.

B1: TCN-504 (3251_K17) (antibody, V domains shown)
VH: QVQLQESGPGLVKPSETLSLTCAVSGVSISNIDFYWGWIRQPPGKGLEWIGNIYYTGITFYNPSLSSRVAISIDTSKNQFSLTLTSVTAADTAMYYCARHYGDSEAINDAFDIWGQGTMLTVSS
VL: EIVMTQSPATLSVSPGERATLSCRASQSVGNSLAWYQQRPGQAPRLLIYGASTRATGIPPRFSGSGSGTEFTLTISSLQTEDFAVYYCQQYINWRPLSFGGGTKVEIK
As to B1, the Trimeric HA Binding RLU worked out at 17000 RLU.

(Values after US20150104459A1.)
